From patent publication US5668000A, “Mitochondrial P450” (Sumitomo Chemical Company, Limited, priority 1990, dated 1997)

Tests used:
[1] = 27-hydroxylation activity of THC in yeast subcellular fractions with added ADX, ADR and NADPH; type: biochemical; settings: expressed in yeast
Description: (§1) A mitochondrial fraction prepared from the strain AH22/pAC25 and a microsomal fraction prepared from the strain AH22/pAMS25 were used for the measurement of hydroxylation activities. Subcellular fractionation was prepared from a transformant yeast strain according to the following method. About 4×10^10 cells were collected from a culture containing about 2×10^7 cells/ml, suspended in Zymolyase solution [10 mM Tris-HCl (pH 7.5), 2.0M sorbitol, 0.1 mM dithiothreitol, 0.1 mM EDTA, 0.3 mg/ml Zymolyase 100T] and incubated at 30° C. for 1 hour to prepare spheroplasts. The spheroplasts were suspended in a sonication buffer (10 mM Tris-HCl (pH 7.5), 0.65M sorbitol, 0.1 mM dithiothreitol, 0.1 mM EDTA, 1 μg/ml leupeptin, 1 μg/ml pepstatin) and homogenized with a Teflon homogenizer to disrupt the cells.
(§2) Precipitate 1 was removed by centrifugation at 3000×g for 5 minutes to give supernatant 1'. Precipitate 1 was resuspended in a sonication buffer, homogenized again, centrifuged at 3000×g for 5 minutes to give precipitate 1 (undisrupted cells and nucleus fractions) and supernatant 1". […]
(§3) Reaction systems (2 ml) shown in the following but NADPH were mixed and preincubated at 37° C. for 5 minutes, and reaction was initiated by the addition of NADPH. […] The benzene layer obtained by centrifugation was dried completely and analyzed by HPLC under the condition listed below. […]

[2] = expressed in yeast
[3] = 25-hydroxylation activity of 1α-hydroxyvitamin D3 in yeast subcellular fractions with added ADX, ADR and NADPH; type: biochemical; settings: expressed in yeast
Description: as §1, §2, §3

B1: P450c25: rat liver mitochondrial P450c25 expressed in yeast (protein, UniProt P17178 33-533, looked up)
Sterol 26-hydroxylase, …: AIPAALRDHESTEGPGTGQDRPRLRSLAELPGPGTLRFLFQLFLRGYVLHLHELQALNKAKYGPMWTTTFGTRTNVNLASAPLLEQVMRQEGKYPIRDSMEQWKEHRDHKGLSYGIFITQGQQWYHLRHSLNQRMLKPAEAALYTDALNEVISDFIARLDQVRTESASGDQVPDVAHLLYHLALEAICYILFEKRVGCLEPSIPEDTATFIRSVGLMFKNSVYVTFLPKWSRPLLPFWKRYMNNWDNIFSFGEKMIHQKVQEIEAQLQAAGPDGVQVSGYLHFLLTKELLSPQETVGTFPELILAGVDTTSNTLTWALYHLSKNPEIQEALHKEVTGVVPFGKVPQNKDFAHMPLLKAVIKETLRLYPVVPTNSRIITEKETEINGFLFPKNTQFVLCHYVVSRDPSVFPEPESFQPHRWLRKREDDNSGIQHPFGSVPFGYGVRSCLGRRIAELEMQLLLSRLIQKYEVVLSPGMGEVKSVSRIVLVPSKKVSLRFLQRQ
exhibited hydroxylation activities: hydroxylation activity to THC [1] | hydroxylation activity to vitamin D3 [2] | hydroxylation activity to 1α-hydroxyvitamin D3 [3]
